Test results taken from patent publication US6677130.

Target: T1, GST-ATF2 substrate, P15336
T1 chain: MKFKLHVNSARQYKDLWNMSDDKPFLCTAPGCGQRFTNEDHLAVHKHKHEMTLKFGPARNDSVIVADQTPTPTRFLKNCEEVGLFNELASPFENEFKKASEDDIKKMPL

B1: epitope-tagged p38-2 (3xHA-p38-2) (protein)
chain: MSGPRAGFYRQELNKTVWEVPQRLQGLRPVGSGAYGSVCSAYDARLRQKVAVKKLSRPFQSLIHARRTYRELRLLKHLKHENVIGLLDVFTPATSLEDFSEVYLVTTLMGADLNNIVKCQALSDEHVQFLVYQLLRGLKYIHSAGIIHRDLKPSNVAVNEDCELRILDFGLARQADEEMTGYVATRWYRAPEIMLNWMHYNQTVDIWSVGCIMAELLQGKALFPGSDYIDQLKRIMEVVGTPSPEVLAKISSEHARTYIQSLPPMPQKDLSSIFRGANPLAIDLLGRMLVLDSDQRVSAAEALAHAYFSQYHDPEDEPEAEPYDEGVEAKERTLEEWKELTYQEVLSFKPPEPPKPPGSLEIEQ
- phosphorylation of GST-ATF2 by immunoprecipitated HA-p38-2 ([gamma-32P]ATP, SDS-PAGE, autoradiography): the inducible phosphorylation of ATF2 depends on a kinase cascade comprised of MEK6 and p38-2
